From patent US20200407449A1 (PHARMABCINE, published 2020) come the findings set out here.

Test [1] deals with T1, hVISTA-Fc (R&D systems. Cat. No. 7126-B7) (human, UniProt Q9H7M9 33-194).
T1 construct: Bought antigen; also called human VISTA-Fc; VISTA-FC Human
T1 sequence: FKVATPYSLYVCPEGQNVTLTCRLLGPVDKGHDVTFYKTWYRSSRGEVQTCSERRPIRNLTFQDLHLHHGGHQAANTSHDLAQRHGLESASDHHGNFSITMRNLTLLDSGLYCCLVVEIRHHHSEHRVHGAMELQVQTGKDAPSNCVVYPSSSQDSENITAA
Description: Octet (BLI), antibody immobilised on biosensor, antigen in solution. How it is done: The binding ability of the screened antibody to the antigen was measured using an Octet (ForteBio). For this purpose, the antibody was immobilized on a biosensor, various concentrations of antigen were added to a 96-well plate, and then the binding ability was measured.
Background: In BLI a coated tip is dipped into the sample, and binding shifts an interference pattern.

The target in test [2] is T2, mouse VISTA-Fc (mouse, UniProt Q9D659 33-191).
T2 construct: extracellular domain; also called mVISTA-Fc; VISTA-FC Mouse; not shown: Fc portion
T2 sequence (looked up): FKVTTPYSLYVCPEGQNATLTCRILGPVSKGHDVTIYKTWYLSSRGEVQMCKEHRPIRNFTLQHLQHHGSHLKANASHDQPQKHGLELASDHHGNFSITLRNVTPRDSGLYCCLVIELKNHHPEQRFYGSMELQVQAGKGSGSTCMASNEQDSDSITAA
Description: ELISA, plate coated with 1 ug/ml mouse VISTA-Fc, antibody at 1 ug/ml, anti-human IgG (kappa)-peroxidase. The procedure: ELISA assay: 1 μg/ml of Ag (human VISTA-Fc or mouse VISTA-Fc) was plated at 100 μl/well onto a 96-well plate and incubated at 4° C. overnight. The next day, the plated Ag was washed 3 times with 0.05% PBST and 200 μl of 2% BSA blocking buffer was added thereto, followed by incubation at 25° C. for 2 hours. After blocking was completed, the resulting product was washed 3 times with 0.05% PBST. 1 μg/ml of each antibody was injected at 100 μl/well and incubated at 25° C. for 1 hour. After incubation was completed, the resulting product was washed 3 times with 0.05% PBST and 100 μl of goat anti-human IgG (kappa)-conjugated peroxidase (1:2000, Bethyl Lab #A80-115P) was added thereto, followed by incubation at 25° C. for […]. After incubation, the resulting product was washed 3 times with 0.05% PBST, 100 μl of TMB (BD TMB substrate reagent set #555214) was added, color was developed for 3 to 5 minutes, 50 μl of a stop solution was added thereto, and then an assay was performed using an ELISA reader.
In general terms: In an ELISA, binding on a coated surface is turned into a signal by an enzyme label.

The target of test [3] is T2, mouse VISTA-Fc. Put plainly: monoclonal scFv phage ELISA, plate coated with 1 ug/ml VISTA-Fc, anti-M13-HRP. How it is done: (§1) After the panning process was completed, the final round cell stock was diluted to form 200 to 500 colonies, spread on a CM agar plate, and then incubated overnight at 37° C. The next day, when the colonies grew, 200 μl of 2xYT medium (CM 34 μg/ml+1% glucose) was plated onto a 96-well deep plate, the colony was inserted into each well one by one and the plate was then incubated overnight at 37° C. and 3,000 rpm. The next day, 200 μl of 2×YT medium (CM 34 μg/ml+1% glucose) was plated onto a new 96-well dip plate, and […] of cells grown the day before were injected into each well and grown at 37° C. and 3,000 rpm for 1 hour and 10 minutes. The remaining cells were stored at −70° C. in 100 pμl of 50% glycerol. When the cells grew, 1 μl of a helper phage was mixed with 19 μl of 2×YT medium, and 20 μl of the resulting mixture was injected into each well and incubated for 30 minutes at 37° C. After incubation, centrifugation was performed at 3,000 rpm for 10 minutes. The supernatant was discarded and 200 μl of 2×YT medium (CM 34 μg/ml+Kan. 70 μg/ml+1 mM IPTG+5 mM MgCl₂) was added to the residue, followed by incubation in MegaGrow at 30° C. and 3,000 rpm overnight.
(§2) 1 μg/ml of Ag (hVISTA-Fc, mVISTA-Fc) was plated at 100 μl/well onto a 96-well immunoplate and then incubated overnight at 4° C. The next day, the cells grown the day before were centrifuged at 3,000 rpm for 10 minutes and stored at 4° C. The plated Ag was washed 3 times with 0.05% PBST, and then 200 μl of 2% BSA blocking buffer was added thereto, followed by incubation at 25° C. for 2 hours. After blocking was completed, the result was washed 3 times with 0.05% PBST. […] After phage binding was completed, the reaction product was washed three times with 0.05% PBST, 100 μl of HRP-conjugated mouse anti-M13 antibody (1:3000, #GE 27-9421-01) was added thereto, and reaction was allowed to proceed at 25° C. for 1 hour. After the reaction was completed, the resulting product was washed 3 times with 0.05% PBST, 100 μl of TMB (#BD TMB substrate reagent set 555214) was added thereto, color was developed for 3 to 5 minutes, 50 μl of a stop solution was added thereto, and then an assay was performed using an ELISA reader.

Test [4] has as its target T1, hVISTA-Fc (R&D systems. Cat. No. …). Described as above. How it is done: as §1, §2

B1: anti-VISTA antibody 3C5 (IgG form) (antibody, V domains shown)
VH: QVQLVQSGAEVKKPGASVKLSCKASGYTFSSYWMHWVRQAPGQRLEWMGEINPGNGHTNYNEKFKSRVTITVDKSASTAYMELSSLRSEDTAVYYCAKDIAYYDFWSGDAFDLWGQGTMVTVSS
VL: SYELTQPLSVSVSPGQTASITCSGDKLGNKYASWYQQKPGQSPVLVIYQDNKRPSGIPERFSGSNSGNTATLTISGTQATDEADYYCQTWDRSTGVFGTGTKVTVLG
A word on the Kd: it is a measure of binding affinity in units of concentration. What is called koff is a measure of how fast the partners let go of each other. Read a high koff as a short-lived complex. By kon is commonly meant a measure of how fast the partners come together. Higher therefore signals faster complex formation. In the case of B1, in test [1], binding was put at a Kd of 13.9 nM, the koff came to 0.00367 s⁻¹ and the kon was found to be 264000 M⁻¹ s⁻¹. In addition, in the test with mouse VISTA-Fc [2], the binding result is recorded as “no binding (tested: 1 ug/ml)”.

B2: anti-VISTA antibody 1A12 (IgG form) (antibody, V domains shown)
VH: QMQLVESGGGLVEPGRSLRLSCTTSGFSFHDYTMYWVRQVPGKGLEWVSLISWDGTITFYADPVRGRFTISRDNSKNSLYLQMNSLRAEDTAVYYCAKEDRYDYYSGAFDIWGQGTVVTVSS
VL: QSALTQPRSVSGSPGQSVTISCTGTSSDVGGYDYVSWYQQHPGKAPKLILNDVNKRPSGVPDRFSGSKSGNTASLTISGLQPDDEADYYCSSFAGSNTLRVFGGGTKLTVLG
As to B2, in test [1], binding was characterised by a dissociation constant (Kd) of 0.546 nM, the koff was 2.74e-05 s⁻¹ and the kon was 50200 M⁻¹ s⁻¹. Also, in the test with mouse VISTA-Fc [2], the binding result is “no binding (tested: 1 ug/ml)”.

B3: 2C12 monoclonal scFv phage (scFv, V domains shown)
VH: QVQLVESGAEVKKPGASVKVSCKASGYIFTDYYMHWVRQAPGQGLEWMGVINPYDGRTSFAQKFQGRLTVTRDTSTSTAYMDLSGLRSEDTAVYYCAKQMGIWDYDAFDIWGQGTMVTVSS
VL: QFVLTQPSSVSGAPGQRVIISCTGSSSNIGAGYDVHWYQQLPGTAPKVLIYGNSDRPSGVPDRFSASKSATSASLAITGLQAEDEADYYCVAWDDSLKAYVFGTGTKVTVLG
Turning to B3, the results for the OD (with mouse VISTA-Fc [3]; in test [4]) were 2.03 OD and 2.11 OD, respectively.
